The source of these data is article PMC7871196 (Cell reports, 2021).

Where no end group is shown, it is not given here. The star is where a group is joined. Biotin = O=C1N[C@H]2[C@H](CS[C@H]2CCCCC(=O)*)N1

Experiment [1] addresses 6xHis-tagged WDR5 (24-334) (human, UniProt P61964 24-334). Kind of experiment: AlphaScreen or HTRF. (Bead proximity is the source of the signal in Alpha formats.)
The target in experiment [2] is recombinant 6xHis-SUMO-WDR5 (22-334) (human, UniProt P61964 22-334). Kind of experiment: pull-down.

Ac-ARTTSQLYDAVPIQS-NH2 [Peptide acetyl PDPK1 WT 15-mer: Acetyl-ARTTSQLYDAVPIQS-amidated]: the binding result in experiment [1] is “binds”. For Ac-ARTTSQLYDA-NH2 [Peptide acetyl PDPK1 WT 10-mer: Acetyl - ARTTSQLYDA-amidated], the binding result in experiment [1] is listed as “binds”. In the case of H-ARTTSQLYDAVPIQSSGGYK(Biotin) [Peptide PDPK1 WT: NH2-ARTTSQLYDAVPIQSS-GGY-K(biotin)], the binding result in experiment [2] is reported as “binds”.
